Test results published in article PMC3005596 (Journal of molecular biology, 2010).
Like-named read-outs stand apart in the source and are kept apart here.

T1: TRBPpm (phospho-mimic) (human, UniProt Q15633 1-366, S142D;S152D;S283D;S286D)
T1 sequence: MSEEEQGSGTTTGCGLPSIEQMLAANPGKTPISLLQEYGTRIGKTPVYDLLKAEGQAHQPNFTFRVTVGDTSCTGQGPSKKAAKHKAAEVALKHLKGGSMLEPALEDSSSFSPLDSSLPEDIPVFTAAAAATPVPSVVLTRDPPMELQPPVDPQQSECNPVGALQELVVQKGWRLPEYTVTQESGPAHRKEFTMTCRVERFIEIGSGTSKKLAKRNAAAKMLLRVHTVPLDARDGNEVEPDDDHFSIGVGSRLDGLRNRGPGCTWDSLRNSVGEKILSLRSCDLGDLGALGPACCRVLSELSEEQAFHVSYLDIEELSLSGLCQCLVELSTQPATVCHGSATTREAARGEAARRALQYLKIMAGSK

T2: TRBP (human, UniProt Q15633 1-366)
T2 sequence: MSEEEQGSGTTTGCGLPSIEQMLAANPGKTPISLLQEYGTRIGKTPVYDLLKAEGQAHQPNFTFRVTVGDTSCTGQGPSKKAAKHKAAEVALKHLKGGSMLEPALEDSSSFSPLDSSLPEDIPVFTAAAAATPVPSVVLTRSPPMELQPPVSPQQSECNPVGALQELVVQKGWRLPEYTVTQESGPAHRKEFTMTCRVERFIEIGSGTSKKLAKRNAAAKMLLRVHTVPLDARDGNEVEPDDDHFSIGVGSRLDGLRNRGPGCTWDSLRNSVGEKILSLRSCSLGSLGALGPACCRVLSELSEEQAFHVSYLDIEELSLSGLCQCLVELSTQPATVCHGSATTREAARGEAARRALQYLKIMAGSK


Experiments:
Dicer;TRBP = Dicer;TRBP (human;human, UniProt Q9UPY3;Q15633 1-1922;1-366, |); assay: filter binding
Chain of Dicer;TRBP (Q9UPY3 whole entry, one chain of several): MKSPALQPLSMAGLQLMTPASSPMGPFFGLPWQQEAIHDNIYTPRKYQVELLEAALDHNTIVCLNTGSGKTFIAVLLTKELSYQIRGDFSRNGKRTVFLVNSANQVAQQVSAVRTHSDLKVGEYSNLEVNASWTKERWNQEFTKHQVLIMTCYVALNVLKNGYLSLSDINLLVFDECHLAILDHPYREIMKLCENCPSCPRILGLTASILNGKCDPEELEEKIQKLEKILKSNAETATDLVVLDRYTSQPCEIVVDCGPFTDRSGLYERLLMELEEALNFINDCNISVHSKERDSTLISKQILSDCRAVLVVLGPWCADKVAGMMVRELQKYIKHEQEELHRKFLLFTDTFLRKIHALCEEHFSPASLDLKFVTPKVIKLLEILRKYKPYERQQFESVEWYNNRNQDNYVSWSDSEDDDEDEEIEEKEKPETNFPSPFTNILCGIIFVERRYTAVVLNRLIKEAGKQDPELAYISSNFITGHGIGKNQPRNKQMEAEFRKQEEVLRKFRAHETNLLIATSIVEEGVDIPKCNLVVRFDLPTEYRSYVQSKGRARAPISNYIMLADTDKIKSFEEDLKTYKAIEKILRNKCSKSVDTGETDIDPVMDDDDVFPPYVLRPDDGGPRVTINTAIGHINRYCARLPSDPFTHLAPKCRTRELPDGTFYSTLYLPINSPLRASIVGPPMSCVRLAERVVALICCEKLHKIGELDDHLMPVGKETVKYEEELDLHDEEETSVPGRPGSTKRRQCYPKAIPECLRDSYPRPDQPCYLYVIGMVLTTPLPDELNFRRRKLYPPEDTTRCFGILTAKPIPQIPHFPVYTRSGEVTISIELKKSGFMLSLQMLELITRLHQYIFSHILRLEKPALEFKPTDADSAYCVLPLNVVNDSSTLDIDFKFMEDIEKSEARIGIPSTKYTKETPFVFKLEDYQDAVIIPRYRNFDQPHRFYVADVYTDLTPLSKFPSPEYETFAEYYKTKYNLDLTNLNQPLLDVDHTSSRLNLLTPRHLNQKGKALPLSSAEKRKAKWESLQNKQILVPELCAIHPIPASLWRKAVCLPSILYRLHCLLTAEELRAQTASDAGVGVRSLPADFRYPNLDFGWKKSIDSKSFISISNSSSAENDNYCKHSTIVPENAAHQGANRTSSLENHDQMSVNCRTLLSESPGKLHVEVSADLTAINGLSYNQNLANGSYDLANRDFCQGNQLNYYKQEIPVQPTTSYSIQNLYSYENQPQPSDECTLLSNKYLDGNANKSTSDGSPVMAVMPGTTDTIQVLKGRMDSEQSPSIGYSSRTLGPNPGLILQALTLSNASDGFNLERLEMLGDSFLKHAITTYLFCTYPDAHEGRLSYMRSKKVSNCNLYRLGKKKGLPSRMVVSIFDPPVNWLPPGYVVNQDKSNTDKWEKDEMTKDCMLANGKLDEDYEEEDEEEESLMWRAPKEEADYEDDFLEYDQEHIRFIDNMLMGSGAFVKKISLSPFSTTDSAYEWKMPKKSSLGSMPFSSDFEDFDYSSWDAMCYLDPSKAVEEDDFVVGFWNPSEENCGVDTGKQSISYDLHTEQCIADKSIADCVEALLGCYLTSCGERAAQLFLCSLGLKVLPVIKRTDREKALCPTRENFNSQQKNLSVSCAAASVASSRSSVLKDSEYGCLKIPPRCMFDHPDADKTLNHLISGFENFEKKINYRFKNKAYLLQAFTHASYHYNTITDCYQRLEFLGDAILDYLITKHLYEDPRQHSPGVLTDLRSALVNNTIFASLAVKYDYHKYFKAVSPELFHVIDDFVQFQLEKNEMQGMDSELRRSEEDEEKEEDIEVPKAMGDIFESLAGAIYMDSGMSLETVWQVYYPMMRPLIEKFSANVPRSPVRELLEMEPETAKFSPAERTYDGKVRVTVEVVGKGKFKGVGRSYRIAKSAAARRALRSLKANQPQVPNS

TRBPpm (phospho-mimic) [1] = target: T1, TRBPpm (phospho-mimic); assay: filter binding
TRBP [2] = target: T2, TRBP; assay: filter binding
Dicer;TRBPRBD3 = Dicer;TRBPRBD3 (human;human, UniProt Q9UPY3;Q15633 1-1922;293-366, |); assay: filter binding
Chain of Dicer;TRBPRBD3 (Q9UPY3 whole entry, chain 1 of 2, one chain of several): as the sequence (Q9UPY3 whole entry, one chain of several) above

Dicer = Dicer (human, UniProt Q9UPY3 1-1922); assay: filter binding
Chain of Dicer (Q9UPY3 whole entry): as the sequence (Q9UPY3 whole entry, one chain of several) above

human Dicer = human Dicer (human, UniProt Q9UPY3 1-1922); assay: SEC
Chain of human Dicer (Q9UPY3 whole entry): as the sequence (Q9UPY3 whole entry, one chain of several) above

TRBPpm (phospho-mimic) [3] = target: T1, TRBPpm (phospho-mimic); assay: filter binding; remark: listed apart in the source
TRBP [4] = target: T2, TRBP; assay: filter binding; remark: listed apart in the source
[5] = target: Dicer;TRBPpm (phospho-mimic) (human;human, UniProt Q9UPY3;Q15633 1-1922;1-366, |S142D;S152D;S283D;S286D); assay: filter binding
Chain of Dicer;TRBPpm (phospho-mimic) (Q9UPY3 whole entry, chain 1 of 2, one chain of several): as the sequence (Q9UPY3 whole entry, one chain of several) above

binding result (human Dicer) | Binder | Kd (Dicer;TRBP) [nM] | Kd (TRBPpm (phospho-mimic) [1]) [nM] | Kd (TRBP [2]) [nM] | Kd (Dicer;TRBPRBD3) [nM] | Kd (Dicer) [nM] | Kd (TRBPpm (phospho-mimic) [3]) [nM] | Kd (TRBP [4]) [nM] | Kd [5] [nM]
– | 35-bp duplex (pre-siRNA) (dsRNA) RNA 1: UGAGGUAGUAGGUUGUAUAGUUUGAAAGUUCACGAUU RNA 2: UCGUGAACUUUCAAACUAUACAACCUACUACCUCAAA | < 0.051 | < 0.1 | < 0.09 | 3 ± 0.4 | 3.4 ± 0.5 | – | – | –
binds | HIV trans-activating response (TAR) RNA binding protein (TRBP) (natural protein, human, UniProt Q15633 1-366, looked up) MSEEEQGSGTTTGCGLPSIEQMLAANPGKTPISLLQEYGTRIGKTPVYDLLKAEGQAHQPNFTFRVTVGDTSCTGQGPSKKAAKHKAAEVALKHLKGGSMLEPALEDSSSFSPLDSSLPEDIPVFTAAAAATPVPSVVLTRSPPMELQPPVSPQQSECNPVGALQELVVQKGWRLPEYTVTQESGPAHRKEFTMTCRVERFIEIGSGTSKKLAKRNAAAKMLLRVHTVPLDARDGNEVEPDDDHFSIGVGSRLDGLRNRGPGCTWDSLRNSVGEKILSLRSCSLGSLGALGPACCRVLSELSEEQAFHVSYLDIEELSLSGLCQCLVELSTQPATVCHGSATTREAARGEAARRALQYLKIMAGSK | – | – | – | – | – | – | – | –
binds | phospho-mimic mutant of TRBP (TRBPpm) (natural protein, human, UniProt Q15633 1-366, looked up) MSEEEQGSGTTTGCGLPSIEQMLAANPGKTPISLLQEYGTRIGKTPVYDLLKAEGQAHQPNFTFRVTVGDTSCTGQGPSKKAAKHKAAEVALKHLKGGSMLEPALEDSSSFSPLDSSLPEDIPVFTAAAAATPVPSVVLTRDPPMELQPPVDPQQSECNPVGALQELVVQKGWRLPEYTVTQESGPAHRKEFTMTCRVERFIEIGSGTSKKLAKRNAAAKMLLRVHTVPLDARDGNEVEPDDDHFSIGVGSRLDGLRNRGPGCTWDSLRNSVGEKILSLRSCDLGDLGALGPACCRVLSELSEEQAFHVSYLDIEELSLSGLCQCLVELSTQPATVCHGSATTREAARGEAARRALQYLKIMAGSK | – | – | – | – | – | – | – | –
– | pre-let-7a (structured_RNA) RNA: UGAGGUAGUAGGUUGUAUAGUUUUAGGGUCACACCCACCACUGGGAGAUAACUAUACAAUCUACUGUCUUACC | < 0.05 | – | – | 1.3 ± 0.1 | 1.8 ± 0.4 | 2.9 ± 0.6 | 1.3 ± 0.2 | < 0.04
